The supplement of paper PMC10567573

B1: ZNF511 (parent)
chain: FDALDDYEHHYHTLHGNVCSFCKR
B2: VENTX (parent)
chain: VFQHHQYLSPLERKRLAREMQLSE

Variants of: B1
Experiment: protein stability index of a GFP-peptide fusion (GPS, HEK-293T) (PSI 1-6); higher = more stable
Conditions: c terminus: a fixed tail appended
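Further: lentivirally expressed fusions sorted by FACS into six bins by GFP to DsRed ratio, PSI derived from sequencing read proportions per bin multiplied by bin number.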

Row | Variant | protein stability index
1 | G16D | 3.87
2 | G16I | 3.15
3 | G16N | 3.72
4 | G16F | 2.9
5 | G16K | 3.22
6 | G16R | 3.47
7 | G16C | 3.42
8 | G16L | 2.98
9 | G16S | 3.37
10 | G16W | 2.66
11 | G16Q | 3.3
12 | G16Y | 2.85
13 | G16M | 3.15
14 | G16P | 3.46
15 | G16H | 3.5
16 | G16A | 3.72
17 | G16T | 3.47
18 | G16V | 2.96
19 | G16E | 3.75
20 | Y7V | 3.98
21 | Y7T | 4.16
22 | Y7W | 3.71
23 | Y7S | 4.05
24 | R24L | 3.35
25 | R24W | 2.95
26 | R24I | 3.08

Row | Variant | protein stability index
27 | R24P | 3.17
28 | R24S | 3.8
29 | R24N | 4.02
30 | R24Y | 2.88
31 | R24C | 3.58
32 | R24M | 3.6
33 | R24D | 4.06
34 | R24F | 2.13
35 | R24H | 3.79
36 | R24K | 4.25
37 | R24T | 3.84
38 | R24E | 4.25
39 | R24V | 3.1
40 | R24A | 3.58
41 | R24G | 4.01
42 | R24Q | 4.25
43 | K23G | 4.15
44 | K23Q | 3.71
45 | K23E | 3.97
46 | K23A | 3.47
47 | K23P | 3
48 | K23I | 2.89
49 | K23H | 3.07
50 | K23W | 1.93
51 | K23Y | 2.59
52 | K23F | 2.67

Row | Variant | protein stability index
53 | K23R | 4.04
54 | K23M | 3.92
55 | K23S | 3.6
56 | K23D | 3.45
57 | K23N | 3.96
58 | K23C | 3.25
59 | K23L | 3.03
60 | K23T | 3.25
61 | K23V | 3.28
62 | F21Y | 3.64
63 | F21K | 4.2
64 | F21S | 3.91
65 | F21I | 4.22
66 | F21G | 4.35
67 | F21R | 4.55
68 | F21E | 4.18
69 | F21Q | 4.56
70 | F21V | 4.45
71 | F21W | 4.32
72 | F21D | 4.62
73 | F21P | 3.49
74 | F21C | 3.59
75 | F21A | 4.3
76 | F21H | 4
77 | F21N | 4.15
78 | F21T | 4.28

Row | Variant | protein stability index
79 | F21L | 4.01
80 | F21M | 3.71
81 | V18G | 4.05
82 | V18T | 3.76
83 | V18P | 4.49
84 | V18C | 3.66
85 | V18R | 3.88
86 | V18H | 2.93
87 | V18E | 4.36
88 | V18A | 3.7
89 | V18S | 3.82
90 | V18Y | 3.7
91 | V18Q | 4.18
92 | V18D | 4.12
93 | V18L | 3.83
94 | V18I | 3.53
95 | V18K | 4.05
96 | V18M | 3.68
97 | V18F | 2.97
98 | V18N | 3.89
99 | V18W | 2.8
100 | Y11V | 4.49
101 | Y11D | 4.64
102 | Y11A | 4.39
103 | Y11M | 4.45
104 | Y11Q | 4.93

Row | Variant | protein stability index
105 | Y11K | 4.28
106 | Y11I | 4.2
107 | Y11S | 4.14
108 | Y11T | 4.62
109 | Y11P | 3.22
110 | Y11W | 2.34
111 | Y11F | 3.19
112 | Y11C | 4.81
113 | Y11E | 4.55
114 | Y11H | 4.14
115 | Y11R | 4.61
116 | Y11G | 4.01
117 | Y11L | 4.05
118 | Y11N | 4.38
119 | E8Q | 3.63
120 | E8G | 3.55
121 | E8Y | 2.79
122 | E8N | 3.3
123 | E8I | 2.51
124 | E8A | 3.66
125 | E8R | 3.55
126 | E8T | 3.67
127 | E8L | 2.74
128 | E8F | 2.57
129 | E8H | 3.63
130 | E8K | 3.05

Row | Variant | protein stability index
131 | E8C | 4.43
132 | E8P | 3.81
133 | E8V | 2.87
134 | E8D | 3.82
135 | E8S | 3.35
136 | E8W | 2.69
137 | E8M | 2.97
138 | T13E | 4.27
139 | T13D | 3.91
140 | T13K | 3.4
141 | T13W | 2.78
142 | T13S | 3.54
143 | T13F | 2.65
144 | T13V | 3.77
145 | T13C | 4.5
146 | T13Q | 3.66
147 | T13M | 3.5
148 | T13L | 3.24
149 | T13R | 3.07
150 | T13N | 3.56
151 | T13P | 4.19
152 | T13H | 4.17
153 | T13Y | 2.92
154 | T13G | 4.15
155 | T13I | 3.19
156 | T13A | 3.82

Row | Variant | protein stability index
157 | H10R | 3.59
158 | H10W | 3.04
159 | H10L | 2.62
160 | H10A | 2.94
161 | H10K | 3.24
162 | H10D | 3.85
163 | H10N | 3.37
164 | H10E | 3.74
165 | H10M | 2.65
166 | H10C | 4.7
167 | H10Q | 3.48
168 | H10Y | 3.22
169 | H10T | 3.4
170 | H10S | 3.06
171 | H10P | 2.76
172 | H10V | 2.46
173 | H10I | 2.53
174 | H10G | 3.73
175 | H10F | 2.92
176 | N17C | 2.5
177 | N17F | 3.1
178 | N17V | 3.67
179 | N17P | 3.16
180 | N17W | 2.6
181 | N17M | 3.54
182 | N17S | 3.98

Row | Variant | protein stability index
183 | N17R | 3.9
184 | N17H | 3.64
185 | N17K | 3.22
186 | N17D | 4.23
187 | N17L | 2.29
188 | N17I | 3.25
189 | N17G | 3.64
190 | N17T | 3.5
191 | N17Y | 2.93
192 | N17Q | 2.24
193 | N17A | 3.55
194 | N17E | 3.96
195 | S20T | 3.81
196 | S20Y | 4.29
197 | S20N | 3.74
198 | S20M | 4.04
199 | S20R | 3.27
200 | S20E | 4.44
201 | S20G | 2.7
202 | S20K | 3.76
203 | S20I | 3.83
204 | S20D | 2.75
205 | S20H | 3.56
206 | S20L | 3.35
207 | S20V | 3.64
208 | S20Q | 3.85

Row | Variant | protein stability index
209 | S20F | 3.67
210 | S20C | 3.4
211 | S20W | 2.63
212 | S20P | 3.54
213 | S20A | 3.81
214 | L14I | 3.92
215 | L14M | 3.99
216 | L14C | 4.85
217 | L14K | 3.54
218 | L14Y | 3.81
219 | L14E | 4.48
220 | L14S | 4.08
221 | L14A | 3.98
222 | L14P | 4.71
223 | L14G | 4.22
224 | L14W | 3.17
225 | L14V | 4.53
226 | L14F | 3.59
227 | L14H | 4.24
228 | L14Q | 4.28
229 | L14D | 4.33
230 | L14T | 4.04
231 | L14N | 4.18
232 | L14R | 3.63
233 | H15N | 3.96
234 | H15D | 3.97

Row | Variant | protein stability index
235 | H15P | 3.3
236 | H15L | 2.6
237 | H15W | 3.3
238 | H15I | 3.55
239 | H15S | 4.13
240 | H15G | 3.92
241 | H15Y | 3.23
242 | H15Q | 3.96
243 | H15R | 3.83
244 | H15F | 2.26
245 | H15K | 3.61
246 | H15E | 4.36
247 | H15A | 3.86
248 | H15V | 3.73
249 | H15C | 3.89
250 | H15M | 3.88
251 | H15T | 4.48
252 | H12S | 3.12
253 | H12N | 3.27
254 | H12W | 2.38
255 | H12V | 3.27
256 | H12Q | 3.3
257 | H12D | 4.41
258 | H12I | 2.16
259 | H12A | 2.96
260 | H12T | 3.29

Row | Variant | protein stability index
261 | H12R | 3.36
262 | H12C | 4.18
263 | H12E | 2.95
264 | H12G | 3.58
265 | H12Y | 2.48
266 | H12M | 2.73
267 | H12F | 2.9
268 | H12L | 2.71
269 | H12K | 2.58
270 | H12P | 3.31
271 | C19S | 3.04
272 | C19A | 3.11
273 | C19R | 2.75
274 | C19K | 3.27
275 | C19Y | 2.2
276 | C19P | 3.1
277 | C19H | 3.19
278 | C19L | 3.71
279 | C19T | 3.41
280 | C19Q | 2.92
281 | C19D | 3.36
282 | C19E | 3.21
283 | C19W | 1.92
284 | C19I | 2.66
285 | C19M | 2.63
286 | C19V | 2.41

Row | Variant | protein stability index
287 | C19G | 2.9
288 | C19F | 2.24
289 | C19N | 3.13
290 | H9K | 3.43
291 | H9E | 3.71
292 | H9G | 4
293 | H9W | 2.67
294 | H9T | 3.47
295 | H9D | 3.69
296 | H9M | 3.44
297 | H9F | 3.03
298 | H9Y | 2.65
299 | H9P | 3.8
300 | H9R | 4.1
301 | H9N | 2.8
302 | H9S | 3.44
303 | H9C | 4.26
304 | H9Q | 3.43
305 | H9L | 2.86
306 | H9A | 3.57
307 | H9V | 3.18
308 | H9I | 3.39
309 | C22T | 2.59
310 | C22M | 2.85
311 | C22P | 3
312 | C22I | 2.26

Row | Variant | protein stability index
313 | C22K | 3.02
314 | C22N | 3.22
315 | C22D | 3.29
316 | C22Q | 3.15
317 | C22S | 3.31
318 | C22W | 1.96
319 | C22E | 3.2
320 | C22H | 2.6
321 | C22L | 2.11
322 | C22V | 3.04
323 | C22R | 2.73
324 | C22F | 2.2
325 | C22Y | 2.39
326 | C22A | 3.11
327 | C22G | 2.37

Variants of: B2
Experiment: as above
Conditions: c terminus: a fixed tail appended

Row | Variant | protein stability index
328 | V1D | 2.83
329 | V1E | 2.49
330 | V1H | 2.34
331 | V1G | 2.09
332 | V1C | 2.45
333 | V1F | 2.1
334 | V1A | 2.28
